Literature values, collected in paper PMC4857727.
pKd: −log10 of the molar value.

What was measured:
[1] = target: Syndecan peptide (Homo sapiens) (UniProt P31431)
[2] = target: IL5R-alpha peptide (Homo sapiens) (UniProt Q01344)
Sequence of UniProt Q01344 (Q01344 21-420): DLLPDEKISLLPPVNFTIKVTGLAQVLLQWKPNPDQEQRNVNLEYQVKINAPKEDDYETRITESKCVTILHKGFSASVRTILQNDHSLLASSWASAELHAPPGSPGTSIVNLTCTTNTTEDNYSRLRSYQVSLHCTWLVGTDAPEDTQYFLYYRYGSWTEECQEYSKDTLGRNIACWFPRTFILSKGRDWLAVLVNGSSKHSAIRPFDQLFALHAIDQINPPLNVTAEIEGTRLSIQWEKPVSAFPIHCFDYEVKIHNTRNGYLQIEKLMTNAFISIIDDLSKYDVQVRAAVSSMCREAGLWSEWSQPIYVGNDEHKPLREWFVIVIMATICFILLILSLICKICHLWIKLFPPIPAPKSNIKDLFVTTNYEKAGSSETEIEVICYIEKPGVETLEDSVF

Sequence of UniProt P31431 (P31431 19-198): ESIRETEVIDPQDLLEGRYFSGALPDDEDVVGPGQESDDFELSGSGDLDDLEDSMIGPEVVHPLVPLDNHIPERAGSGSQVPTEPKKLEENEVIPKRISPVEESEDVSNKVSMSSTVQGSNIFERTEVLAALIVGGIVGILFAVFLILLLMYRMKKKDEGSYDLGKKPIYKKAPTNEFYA

pKd [1]: 5.54
pKd [2]: 4.36
Substance: Syntenin PDZ2 (from UniProt O00560)
